{
  "source": "paper PMC2695398",
  "biological_target": "Soluble HLA-DR15 (DRA, DRB1*1501) (human)",
  "assay": "fluorescence polarisation",
  "data": [
    {"substance": "Alexa488 labeled derivative of the human myelin basic protein (MBP) 85-99 peptide", "values": [
      {"measurement": "fold acceleration of peptide binding by DM at pH 4.7", "result": 15, "unit": "fold"},
      {"measurement": "fold acceleration of peptide binding by DM at pH 5.6", "result": 8, "unit": "fold"},
      {"measurement": "fold acceleration of peptide binding by J10-1 at pH 4.7", "result": 15.6, "unit": "fold"},
      {"measurement": "fold acceleration of peptide binding by J10-1 at pH 5.6", "result": 28, "unit": "fold"},
      {"measurement": "fold acceleration of peptide binding by J10-1 at pH 7.1", "result": 12.6, "unit": "fold"},
      {"measurement": "fold acceleration of peptide exchange by 10 uM J10-1", "result": 15.9, "unit": "fold"},
      {"measurement": "fold acceleration of peptide exchange by 30 uM J10-1", "result": 66.4, "unit": "fold"},
      {"measurement": "fold faster rate of binding with DR15/CLIP than with DR15/pMBP as input complex", "result": "> 10", "unit": "fold"},
      {"measurement": "half-life of the complex (t1/2) with 100 uM J10", "result": 4.48, "unit": "h"},
      {"measurement": "half-life of the complex (t1/2) with 100 uM J10-1", "result": 1.93, "unit": "h"},
      {"measurement": "half-life of the complex (t1/2), no small molecule", "result": 35, "unit": "h"}
    ]}
  ]
}
